B1: hu40E9-L2H3-N55S.H (antibody, V domains shown)
VH: EVQLVQSGAEVKKPGSSVKVSCKASGYTFSSYVIHWVRQAPGQGLEWMGYINPYSDVIKYNEKFKGRVTLTSDKSTSTAYMELSSLRSEDTAVYYCARDSYYSYDGFAYWGQGTLVTVSS
VL: EIVLTQSPDFQSVTPKEKVTITCSASSSVSYMHWYQQKPDQSPKRLIYDTSKLASGVPSRFSGSGSGTDFTLTINSLEAEDAATYYCQQWSSNPPTFGGGTKVEIK
B2: hu40E9-L2H3-N93R.L (antibody, V domains shown)
VH: EVQLVQSGAEVKKPGSSVKVSCKASGYTFSSYVIHWVRQAPGQGLEWMGYINPYNDVIKYNEKFKGRVTLTSDKSTSTAYMELSSLRSEDTAVYYCARDSYYSYDGFAYWGQGTLVTVSS
VL: EIVLTQSPDFQSVTPKEKVTITCSASSSVSYMHWYQQKPDQSPKRLIYDTSKLASGVPSRFSGSGSGTDFTLTINSLEAEDAATYYCQQWSSRPPTFGGGTKVEIK
B3: hu40E9-L2H3-N93W.L (antibody, V domains shown)
VH: EVQLVQSGAEVKKPGSSVKVSCKASGYTFSSYVIHWVRQAPGQGLEWMGYINPYNDVIKYNEKFKGRVTLTSDKSTSTAYMELSSLRSEDTAVYYCARDSYYSYDGFAYWGQGTLVTVSS
VL: EIVLTQSPDFQSVTPKEKVTITCSASSSVSYMHWYQQKPDQSPKRLIYDTSKLASGVPSRFSGSGSGTDFTLTINSLEAEDAATYYCQQWSSWPPTFGGGTKVEIK
B4: hu40E9-L2H3-Y102S.H (antibody, V domains shown)
VH: EVQLVQSGAEVKKPGSSVKVSCKASGYTFSSYVIHWVRQAPGQGLEWMGYINPYNDVIKYNEKFKGRVTLTSDKSTSTAYMELSSLRSEDTAVYYCARDSYSSYDGFAYWGQGTLVTVSS
VL: EIVLTQSPDFQSVTPKEKVTITCSASSSVSYMHWYQQKPDQSPKRLIYDTSKLASGVPSRFSGSGSGTDFTLTINSLEAEDAATYYCQQWSSNPPTFGGGTKVEIK
B5: hu40E9-L2H3-Y101F.H (antibody, V domains shown)
VH: EVQLVQSGAEVKKPGSSVKVSCKASGYTFSSYVIHWVRQAPGQGLEWMGYINPYNDVIKYNEKFKGRVTLTSDKSTSTAYMELSSLRSEDTAVYYCARDSFYSYDGFAYWGQGTLVTVSS
VL: EIVLTQSPDFQSVTPKEKVTITCSASSSVSYMHWYQQKPDQSPKRLIYDTSKLASGVPSRFSGSGSGTDFTLTINSLEAEDAATYYCQQWSSNPPTFGGGTKVEIK
B6: hu40E9-L2H1 (antibody, V domains shown)
VH: EVQLVQSGAEVKKPGSSVKVSCKASGGTFSSYVIHWVRQAPGQGLEWMGYINPYNDVIKYNEKFKGRVTITADKSTSTAYMELSSLRSEDTAVYYCARDSYYSYDGFAYWGQGTLVTVSS
VL: EIVLTQSPDFQSVTPKEKVTITCSASSSVSYMHWYQQKPDQSPKRLIYDTSKLASGVPSRFSGSGSGTDFTLTINSLEAEDAATYYCQQWSSNPPTFGGGTKVEIK
notes: humanized 40-C12-C10-E9
B7: hu40E9-L2H3-Y54G.H (antibody, V domains shown)
VH: EVQLVQSGAEVKKPGSSVKVSCKASGYTFSSYVIHWVRQAPGQGLEWMGYINPGNDVIKYNEKFKGRVTLTSDKSTSTAYMELSSLRSEDTAVYYCARDSYYSYDGFAYWGQGTLVTVSS
VL: EIVLTQSPDFQSVTPKEKVTITCSASSSVSYMHWYQQKPDQSPKRLIYDTSKLASGVPSRFSGSGSGTDFTLTINSLEAEDAATYYCQQWSSNPPTFGGGTKVEIK
B8: hu40E9-L2H3-D105R.H (antibody, V domains shown)
VH: EVQLVQSGAEVKKPGSSVKVSCKASGYTFSSYVIHWVRQAPGQGLEWMGYINPYNDVIKYNEKFKGRVTLTSDKSTSTAYMELSSLRSEDTAVYYCARDSYYSYRGFAYWGQGTLVTVSS
VL: EIVLTQSPDFQSVTPKEKVTITCSASSSVSYMHWYQQKPDQSPKRLIYDTSKLASGVPSRFSGSGSGTDFTLTINSLEAEDAATYYCQQWSSNPPTFGGGTKVEIK

What was measured:
[1] = target: T1, human CD3 (human, UniProt P07766 23-207; P04234 22-171; P09693 23-182); assay: FACS on Jurkat cells
T1 construct: whole, on cells; also called hCD3; CD3 on Jurkat cells

[2] = target: T1, human CD3; assay: cell-based or functional assay

T1 sequence (P07766 23-207, chain 1 of 3): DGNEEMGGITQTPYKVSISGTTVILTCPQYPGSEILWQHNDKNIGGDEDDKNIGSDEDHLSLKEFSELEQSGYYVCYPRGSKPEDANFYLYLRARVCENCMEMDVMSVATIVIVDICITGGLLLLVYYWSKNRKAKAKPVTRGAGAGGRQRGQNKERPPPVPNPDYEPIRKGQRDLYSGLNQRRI
T1 sequence (P04234 22-171, chain 2 of 3): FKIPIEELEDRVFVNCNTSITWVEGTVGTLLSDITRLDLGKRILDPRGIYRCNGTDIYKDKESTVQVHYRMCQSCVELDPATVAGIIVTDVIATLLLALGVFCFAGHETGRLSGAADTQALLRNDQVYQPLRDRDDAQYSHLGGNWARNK
T1 sequence (P09693 23-182, chain 3 of 3): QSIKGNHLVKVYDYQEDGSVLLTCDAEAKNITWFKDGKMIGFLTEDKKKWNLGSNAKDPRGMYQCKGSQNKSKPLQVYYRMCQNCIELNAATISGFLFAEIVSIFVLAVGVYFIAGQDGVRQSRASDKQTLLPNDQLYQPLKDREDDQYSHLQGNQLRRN

Binder | EC50 [1] [nM] | Top FACS signal [1] | EC50_Fold change (Jurkat-NFAT-luciferase activation, normalized to ch40-C12-C10-E9) [2] [fold] | Top FACS signal_Fold change (Jurkat-NFAT-luciferase activation, normalized to ch40-C12-C10-E9) [2] [fold]
B1 | 0.51 | 1160 | 1.35 | 1.03
B2 | 0.63 | 1420 | 0.81 | 1.07
B3 | 0.51 | 1210 | 0.72 | 0.88
B4 | 0.47 | 1160 | 0.87 | 0.96
B5 | 0.64 | 1190 | 1.23 | 0.94
B6 | 0.73 | 892 | 5.73 | 1.37
B7 | 0.51 | 1190 | 1.06 | 0.94
B8 | 0.56 | 1480 | 1.95 | 0.81
